This test concerns the target T1, gB AD-2S1 peptide (Human cytomegalovirus (HHV-5), gB …).
T1 chain: HRANETIYNTTLKYG
The test is described as follows: SPR. The settings on record: both partners purified.

B1: TRL345 lineage second intermediate (I4) mAb (antibody, V domains shown)
VH: QVQLVESGGGVVQPGRSLRLSCAASGFTFNTYNMHWVRQAPGKGLEWVAVISNDGTYKYSADSVKGRFSISRDNSKNTLYLQMNSLRPDDTAVYYCARDGRSVGGFSGILDPWGQGTLVTVSS
VL: EIVLTQSPATLSLSPGDRATLSCRASQSVGSYLAWYQQKPGQAPRLLIYDASDRATGIPARFSGSGSGTDFTLTISSLEPEDFAVYYCQQRSNWPPLTFGGGTKVEIK
As for B1, the other came to 5 fold.

The record behind these values is article PMC9891502 (PLOS Pathogens, 2023).
